We go through one molecule from article doi:10.1101/2020.02.20.958934 (bioRxiv, 2020).

The experiment has as its target T1, PEBP1 (UniProt P70296 1-187).
T1 sequence (looked up): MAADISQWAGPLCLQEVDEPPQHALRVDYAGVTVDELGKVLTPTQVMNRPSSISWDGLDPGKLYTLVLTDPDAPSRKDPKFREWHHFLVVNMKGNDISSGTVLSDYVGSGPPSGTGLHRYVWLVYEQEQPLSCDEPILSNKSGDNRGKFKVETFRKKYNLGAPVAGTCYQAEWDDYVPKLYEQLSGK
Kind of experiment: ITC.

B1: dendritic cell factor 1 (DCF1) (natural protein)
chain: EAFDSVLGDTASCHRACQLTYPLHTYPKEEELYACQRGCRLFSICQFVDDGLDLNRTKLECESACTEAYSQPDEQYACHLGCQDQLPFAELRQEQLMSLMPRMHLLFPLTLVRSFWSDMMDSAQSFITSSWTFYLQADDGKIVIFQSKPEIQYAPQLEQEPTNLRESSLSKMSYLQMRNSQAHRNYLEEEESDGFLRCLSLNSGWILTTTLVLSVMVLLWICCAAVATAVEQYVPPEKLSIYGDLEFMNEQKLSRYPAPSLVIVRSQTEEHEEAGPLPTKVNLAHSEI
Turning to B1, the dH was -329 kcal/mol and the “stoichiometry N” value is 0.753 ± 0.0359.

The stoichiometry N is the number of molecules, sites or subunits per partner or assembly.
